Residue numbers refer to the chain shown, from its start.
B1: Ab-31 (antibody, V domains shown)
VH: EVQLQESGPGLVKPSETLSLTCAVSGYSISSGYYWGWIRQPPGKGLEWIGSIYHSGNTYYNPSLKSRVTISVDTSKNQFSLKLSSVTAADTAVYYCARVPRYSRGDAYYYYGMDVWGQGTTVTVSS
VL: DIQMTQSPSTLSASVGDRVTITCRASQSIGSWLAWYQQKPGKAPKLLIYKASSLESGVPSRFSGSGSGTEFTLTISSLQPDDFATYYCQQSGPYPWTFGGGTKVEIK
B2: Ab-29 (antibody, V domains shown)
VH: ELQLQESGPGLVKPSETLSLTCTVSGGSISSNSYYWGWIRQPPGKGLEWIGSIYYSGSTYYNPSLKSRVTISVDTSKNQFSLKLSSVTAADTAVYYCARVRRVAGRGDSYYYYYGMDVWGQGTTVTVSS
VL: DIQMTQSPSSVSASVGDRVTITCRASQGISRWLAWYQQKPGKAPKLLIYAASSLQSGVPSRFSGSGSGTDFTLTISSLQPEDFATYYCQQAISHPWTFGGGTKVEIK
B3: Ab-30 (antibody, V domains shown)
VH: B1 VH
VL: DIQMTQSPSTLSASVGDRVTITCRASQSISSWLAWYQQKPGKAPKLLIYKASSLESGVPSRFSGSGSGTEFTLTISSLQPDDFATYYCQQVKIYPPYTFGGGTKVEIK
B4: Ab-32 (antibody, V domains shown)
VH: B1 VH
VL: EIVLTQSPGTLSLSPGERATLSCRASQSVRSSYLAWYQQKPGQAPRLLIYGASSRATGIPDRFSGSGSGTDFTLTISRLEPEDFAVYYCQQAGLVFTFGGGTKVEIK
B5: Ab-33 (antibody, V domains shown)
VH: EVQLVQSGAEVKKPGSSVKVSCKASGGTFSNYAISWVRQAPGQGLEWMGGIIPIFGTANYAQKFQGRVTITADESTSTAYMELSSLRSEDTAVYYCARAPRSARGDMYYYYYGMDVWGQGTTVTVSS
VL: B1 VL with S91Y, P93R

How the values were obtained:
[1] = target: T1, recombinant human αvβ5 integrin extracellular domains (human, UniProt P06756 1-992; P18084 1-719, Secreted glycoprotein heterodimer. It is biotinylated on the omitted Avitag, and an interchain disulfide sits in the omitted coiled-coils.); experiment: AlphaLISA blocking of human vitronectin-GST binding
T1 construct: Soluble heterodimer co-expressed in Expi293 cells; also called hαvβ5; not shown: Alpha chain: acidic coiled-coil with cysteine and GG-Avitag; Beta chain: basic coiled-coil with cysteine and GG-Avitag

[2] = target: T2, recombinant human αvβ3 integrin extracellular domains (human, UniProt P06756 1-992; P05106 1-718, Secreted glycoprotein heterodimer. It is biotinylated on the omitted Avitag, and an interchain disulfide sits in the omitted coiled-coils.); experiment: as above
T2 construct: Soluble heterodimer co-expressed in Expi293 cells; also called hαvβ3; not shown: Alpha chain: acidic coiled-coil with cysteine and GG-Avitag; Beta chain: basic coiled-coil with cysteine and GG-Avitag

[3] = target: human αvβ8 integrin on CHOK1 stable cells (human, UniProt P06756 31-1048; P26012 43-769); experiment: cell-based or functional assay
[4] = target: mouse αvβ6 integrin on CHOK1 stable cells (mouse, UniProt P43406 31-1044; Q9Z0T9 22-787); experiment: cell-based or functional assay
[5] = target: mouse αvβ3 integrin on CHOK1 stable cells (mouse, UniProt P43406 31-1044; O54890 26-787); experiment: cell-based or functional assay
[6] = target: mouse αvβ8 integrin on CHOK1 stable cells (mouse, UniProt P43406 31-1044; Q0VBD0 22-767); experiment: cell-based or functional assay
[7] = target: human αvβ6 integrin on CHOK1 stable cells (human, UniProt P06756 31-1048; P18564 22-788); experiment: cell-based or functional assay
[8] = target: mouse αvβ5 integrin on CHOK1 stable cells (mouse, UniProt P43406 31-1044; O70309 24-798); experiment: cell-based or functional assay
[9] = target: human αvβ1 integrin on CHOK1 stable cells (human, UniProt P06756 31-1048; P05556 21-798); experiment: cell-based or functional assay
[10] = target: mouse αvβ1 integrin on CHOK1 stable cells (mouse, UniProt P43406 31-1044; P09055 21-798); experiment: cell-based or functional assay
[11] = target: T3, recombinant human αvβ6 integrin extracellular domains (human, UniProt P06756 1-992; P18564 1-709, Biotinylated on the Avitag (tag not in the letters); interchain disulfide between the coiled-coils (not in the letters).); experiment: AlphaLISA blocking of human LAP binding
T3 construct: Soluble heterodimer co-expressed in Expi293 cells; also called hαvβ6

[12] = target: T4, recombinant human αvβ8 integrin extracellular domains (human, UniProt P06756 1-992; P26012 1-684, Biotinylated on the Avitag (tag not in the letters); interchain disulfide between the coiled-coils (not in the letters).); experiment: AlphaLISA blocking of human LAP binding
T4 construct: Soluble heterodimer co-expressed in Expi293 cells; also called hαvβ8

[13] = target: T5, recombinant mouse αvβ3 integrin extracellular domains (mouse, UniProt P43406 1-988; O54890 1-717, Biotinylated on the Avitag (tag not in the letters); interchain disulfide between the coiled-coils (not in the letters).); experiment: AlphaLISA blocking of mouse vitronectin binding
T5 construct: Soluble heterodimer co-expressed in Expi293 cells; also called mαvβ3
Experimental: (§1) Briefly, the testing antibody (8 μL) was added as a 4×(of Final testing concentration) solution in the HEPES buffer described previously into a 384w AlphaPlate™ (Perkin Elmer #6005350). Then the integrin and ligand were added sequentially as 8×(4 μL each). Plates were sealed and incubated at room temperature for two hours. Then 4×acceptor bead solution ([…]) was added, and the plates were resealed and incubated at room temperature (RT) for one hour. Finally, 4×([…]) donor beads solution was added in a darkened room and incubated for 45 minutes at room temperature. Plates were read on the Envision (Perkin Elmer) in AlphaScreen™ mode within three hours of donor bead addition.

[14] = target: T6, recombinant human αvβ1 integrin extracellular domains (human, UniProt P06756 1-992; P05556 1-728, Secreted glycoprotein heterodimer. It is biotinylated on the omitted Avitag, and an interchain disulfide sits in the omitted coiled-coils.); experiment: AlphaLISA blocking of human fibronectin binding
T6 construct: Soluble heterodimer co-expressed in Expi293 cells; also called hαvβ1; not shown: Alpha chain: acidic coiled-coil with cysteine and GG-Avitag; Beta chain: basic coiled-coil with cysteine and GG-Avitag

[15] = target: T7, recombinant human α5β1 integrin extracellular domains (human, UniProt P08648 1-995; P05556 1-728, Biotinylated on the Avitag (tag not in the letters); interchain disulfide between the coiled-coils (not in the letters).); experiment: AlphaLISA blocking of human fibronectin binding
T7 construct: Soluble heterodimer co-expressed in Expi293 cells; also called hα5β1

[16] = target: T8, recombinant mouse αvβ1 integrin extracellular domains (mouse, UniProt P43406 1-988; P09055 1-728, Biotinylated on the Avitag (tag not in the letters); interchain disulfide between the coiled-coils (not in the letters).); experiment: ForteBio Octet Red (BLI); upper end tied to Ab-31 and mαvβ1 by Table 13
T8 construct: Soluble heterodimer co-expressed in Expi293 cells; also called mαvβ1

[17] = target: T9, recombinant mouse αvβ5 integrin extracellular domains (mouse, UniProt P43406 1-988; O70309 1-719, Biotinylated on the Avitag (tag not in the letters); interchain disulfide between the coiled-coils (not in the letters).); experiment: AlphaLISA blocking of mouse vitronectin binding
T9 construct: Soluble heterodimer co-expressed in Expi293 cells; also called mαvβ5
Experimental: as §1

[18] = target: T10, recombinant mouse αvβ6 integrin extracellular domains (mouse, UniProt P43406 1-988; Q9Z0T9 1-706, Biotinylated on the Avitag (tag not in the letters); interchain disulfide between the coiled-coils (not in the letters).); experiment: ForteBio Octet Red (BLI); lower end tied to Ab-33 and mαvβ6 by Table 13
T10 construct: Soluble heterodimer co-expressed in Expi293 cells; also called mαvβ6

T5 sequence (P43406 31-988 limits assumed, form in doubt, chain 1 of 2): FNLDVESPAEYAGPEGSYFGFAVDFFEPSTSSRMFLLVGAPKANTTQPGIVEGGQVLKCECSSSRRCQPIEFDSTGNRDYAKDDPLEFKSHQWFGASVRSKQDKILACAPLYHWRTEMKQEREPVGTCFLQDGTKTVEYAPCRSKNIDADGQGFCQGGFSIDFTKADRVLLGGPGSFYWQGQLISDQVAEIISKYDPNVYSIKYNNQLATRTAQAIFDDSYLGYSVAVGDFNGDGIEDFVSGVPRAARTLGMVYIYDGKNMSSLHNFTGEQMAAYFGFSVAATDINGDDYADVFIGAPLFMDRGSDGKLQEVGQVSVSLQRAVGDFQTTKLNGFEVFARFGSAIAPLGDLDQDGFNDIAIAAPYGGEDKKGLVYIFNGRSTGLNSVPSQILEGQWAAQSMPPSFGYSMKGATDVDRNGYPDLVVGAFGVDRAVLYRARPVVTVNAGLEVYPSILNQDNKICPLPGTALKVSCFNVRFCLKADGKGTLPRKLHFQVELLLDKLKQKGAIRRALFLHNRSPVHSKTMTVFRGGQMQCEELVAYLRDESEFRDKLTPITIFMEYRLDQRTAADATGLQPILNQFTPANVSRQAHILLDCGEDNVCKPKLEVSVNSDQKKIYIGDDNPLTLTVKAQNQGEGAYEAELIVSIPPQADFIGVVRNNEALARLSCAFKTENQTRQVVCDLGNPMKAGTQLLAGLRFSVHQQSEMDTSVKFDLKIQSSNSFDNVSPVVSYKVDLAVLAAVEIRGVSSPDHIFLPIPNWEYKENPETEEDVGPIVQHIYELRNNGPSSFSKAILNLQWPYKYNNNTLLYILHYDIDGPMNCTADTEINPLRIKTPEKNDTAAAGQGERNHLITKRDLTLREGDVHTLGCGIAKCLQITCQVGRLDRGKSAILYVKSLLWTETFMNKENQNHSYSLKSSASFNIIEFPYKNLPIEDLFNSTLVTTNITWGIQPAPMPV
T5 sequence (O54890 26-717 limits assumed, form in doubt, chain 2 of 2): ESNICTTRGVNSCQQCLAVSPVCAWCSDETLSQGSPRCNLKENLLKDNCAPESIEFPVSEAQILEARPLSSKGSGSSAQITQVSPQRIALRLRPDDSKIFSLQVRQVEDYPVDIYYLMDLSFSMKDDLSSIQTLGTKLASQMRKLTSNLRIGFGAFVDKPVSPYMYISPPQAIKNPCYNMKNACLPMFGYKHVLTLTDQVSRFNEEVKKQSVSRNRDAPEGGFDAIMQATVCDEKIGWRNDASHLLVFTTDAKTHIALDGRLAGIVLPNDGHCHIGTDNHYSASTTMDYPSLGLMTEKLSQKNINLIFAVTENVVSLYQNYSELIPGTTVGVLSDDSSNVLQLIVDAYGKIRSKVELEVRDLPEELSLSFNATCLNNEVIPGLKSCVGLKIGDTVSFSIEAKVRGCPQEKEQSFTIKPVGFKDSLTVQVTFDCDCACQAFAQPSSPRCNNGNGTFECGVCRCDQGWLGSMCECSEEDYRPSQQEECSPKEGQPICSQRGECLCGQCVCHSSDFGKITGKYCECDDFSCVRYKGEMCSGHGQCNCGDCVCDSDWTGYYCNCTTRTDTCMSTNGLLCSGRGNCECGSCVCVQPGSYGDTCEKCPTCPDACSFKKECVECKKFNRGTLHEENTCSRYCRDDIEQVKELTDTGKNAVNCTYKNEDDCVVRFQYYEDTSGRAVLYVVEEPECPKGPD
Sequence of mouse αvβ1 integrin on CHOK1 stable cells (P43406 31-1044, chain 1 of 2): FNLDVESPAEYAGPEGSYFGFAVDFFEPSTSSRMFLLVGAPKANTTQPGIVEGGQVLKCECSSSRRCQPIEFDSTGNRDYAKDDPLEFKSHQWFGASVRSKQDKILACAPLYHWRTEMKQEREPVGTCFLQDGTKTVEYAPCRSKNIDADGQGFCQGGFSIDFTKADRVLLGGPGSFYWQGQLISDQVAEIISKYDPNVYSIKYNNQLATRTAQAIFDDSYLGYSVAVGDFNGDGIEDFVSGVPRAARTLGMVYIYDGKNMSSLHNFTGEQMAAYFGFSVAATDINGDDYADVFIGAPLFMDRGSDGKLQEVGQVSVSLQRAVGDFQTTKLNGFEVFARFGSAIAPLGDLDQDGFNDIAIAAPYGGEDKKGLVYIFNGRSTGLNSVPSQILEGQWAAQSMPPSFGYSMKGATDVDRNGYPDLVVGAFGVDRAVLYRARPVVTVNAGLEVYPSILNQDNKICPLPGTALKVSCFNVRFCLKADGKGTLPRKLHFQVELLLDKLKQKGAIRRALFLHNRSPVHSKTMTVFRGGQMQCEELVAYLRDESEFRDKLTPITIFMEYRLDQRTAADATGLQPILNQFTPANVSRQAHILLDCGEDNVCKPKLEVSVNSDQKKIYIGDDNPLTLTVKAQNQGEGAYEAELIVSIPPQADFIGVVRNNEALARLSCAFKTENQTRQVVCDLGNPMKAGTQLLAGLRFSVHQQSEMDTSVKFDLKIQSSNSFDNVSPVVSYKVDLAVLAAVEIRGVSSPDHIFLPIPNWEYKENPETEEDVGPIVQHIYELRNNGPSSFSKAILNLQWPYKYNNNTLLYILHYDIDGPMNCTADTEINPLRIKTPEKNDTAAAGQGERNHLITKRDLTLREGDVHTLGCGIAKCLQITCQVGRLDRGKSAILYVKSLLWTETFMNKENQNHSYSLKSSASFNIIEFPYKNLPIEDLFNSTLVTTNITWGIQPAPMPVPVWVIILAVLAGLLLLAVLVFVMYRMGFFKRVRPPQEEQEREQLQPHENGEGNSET
Sequence of mouse αvβ1 integrin on CHOK1 stable cells (P09055 21-798, chain 2 of 2): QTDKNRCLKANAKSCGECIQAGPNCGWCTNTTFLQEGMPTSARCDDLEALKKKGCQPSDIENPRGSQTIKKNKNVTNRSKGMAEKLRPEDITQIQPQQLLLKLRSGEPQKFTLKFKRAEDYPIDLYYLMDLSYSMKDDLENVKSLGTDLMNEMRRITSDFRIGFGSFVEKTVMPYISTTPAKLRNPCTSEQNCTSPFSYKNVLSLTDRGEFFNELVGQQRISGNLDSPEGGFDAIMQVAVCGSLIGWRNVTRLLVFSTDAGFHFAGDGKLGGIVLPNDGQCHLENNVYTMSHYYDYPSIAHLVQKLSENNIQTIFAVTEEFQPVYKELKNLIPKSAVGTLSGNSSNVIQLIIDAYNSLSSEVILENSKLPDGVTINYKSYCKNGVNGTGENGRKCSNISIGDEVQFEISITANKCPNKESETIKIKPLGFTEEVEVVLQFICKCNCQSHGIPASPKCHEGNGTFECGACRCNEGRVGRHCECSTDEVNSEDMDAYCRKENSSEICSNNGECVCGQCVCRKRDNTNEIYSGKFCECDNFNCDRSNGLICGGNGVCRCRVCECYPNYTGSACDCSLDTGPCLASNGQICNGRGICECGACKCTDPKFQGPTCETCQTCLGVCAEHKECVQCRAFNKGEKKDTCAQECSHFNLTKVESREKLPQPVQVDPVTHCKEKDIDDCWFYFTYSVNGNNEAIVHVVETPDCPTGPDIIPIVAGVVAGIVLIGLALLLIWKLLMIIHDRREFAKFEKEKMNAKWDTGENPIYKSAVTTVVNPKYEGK
T9 sequence (P43406 31-988 limits assumed, form in doubt, chain 1 of 2): as the sequence (P43406 31-988 limits assumed, form in doubt, chain 1 of 2) above
T9 sequence (O70309 24-719 limits assumed, form in doubt, chain 2 of 2): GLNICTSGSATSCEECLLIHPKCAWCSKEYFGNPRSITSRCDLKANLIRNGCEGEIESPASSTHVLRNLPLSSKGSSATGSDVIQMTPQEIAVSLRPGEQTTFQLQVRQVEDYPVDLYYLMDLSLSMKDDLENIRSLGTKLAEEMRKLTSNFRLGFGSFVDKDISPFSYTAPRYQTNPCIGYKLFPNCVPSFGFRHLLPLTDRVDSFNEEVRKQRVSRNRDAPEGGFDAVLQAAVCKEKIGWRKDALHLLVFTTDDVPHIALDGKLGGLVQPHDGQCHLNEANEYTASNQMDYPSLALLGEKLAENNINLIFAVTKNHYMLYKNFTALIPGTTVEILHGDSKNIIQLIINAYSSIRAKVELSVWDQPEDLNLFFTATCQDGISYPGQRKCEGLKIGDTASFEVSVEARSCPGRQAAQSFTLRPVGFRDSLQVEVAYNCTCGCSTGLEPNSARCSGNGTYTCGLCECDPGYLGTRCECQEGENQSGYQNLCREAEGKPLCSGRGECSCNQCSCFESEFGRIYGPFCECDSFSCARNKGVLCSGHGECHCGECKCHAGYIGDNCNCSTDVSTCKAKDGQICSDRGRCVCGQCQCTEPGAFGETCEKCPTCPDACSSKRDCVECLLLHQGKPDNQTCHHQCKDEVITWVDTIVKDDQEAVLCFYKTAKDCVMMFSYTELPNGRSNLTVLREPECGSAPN
Sequence of mouse αvβ5 integrin on CHOK1 stable cells (P43406 31-1044, chain 1 of 2): as the sequence (P43406 31-1044, chain 1 of 2) above
Sequence of mouse αvβ5 integrin on CHOK1 stable cells (O70309 24-798, chain 2 of 2): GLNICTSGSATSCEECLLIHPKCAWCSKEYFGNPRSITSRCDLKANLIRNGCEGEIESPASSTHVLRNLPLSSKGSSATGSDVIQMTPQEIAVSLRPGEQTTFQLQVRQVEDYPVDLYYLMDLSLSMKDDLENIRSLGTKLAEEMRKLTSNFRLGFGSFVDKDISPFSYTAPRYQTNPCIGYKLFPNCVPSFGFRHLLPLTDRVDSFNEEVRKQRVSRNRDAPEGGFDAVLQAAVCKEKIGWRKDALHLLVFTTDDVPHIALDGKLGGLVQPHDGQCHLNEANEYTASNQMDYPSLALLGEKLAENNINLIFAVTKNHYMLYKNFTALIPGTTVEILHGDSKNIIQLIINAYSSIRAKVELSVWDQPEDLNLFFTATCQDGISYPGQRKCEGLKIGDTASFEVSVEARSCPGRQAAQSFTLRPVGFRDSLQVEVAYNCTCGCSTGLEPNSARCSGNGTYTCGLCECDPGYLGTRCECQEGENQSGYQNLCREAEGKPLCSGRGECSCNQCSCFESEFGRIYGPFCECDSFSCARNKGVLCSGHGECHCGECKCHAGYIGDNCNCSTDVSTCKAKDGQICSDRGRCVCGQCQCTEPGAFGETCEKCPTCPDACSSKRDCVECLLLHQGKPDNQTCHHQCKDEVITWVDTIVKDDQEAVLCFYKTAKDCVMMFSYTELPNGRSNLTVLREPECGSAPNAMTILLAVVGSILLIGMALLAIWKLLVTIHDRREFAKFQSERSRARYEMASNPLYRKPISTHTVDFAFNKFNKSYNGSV

Binder | IC50 [1] [nM] | IC50 [2] [nM] | IC50 of latent TGFβ activation (PAI-1 luciferase, TMLC and CHOK1-integrin co-culture) [3] [nM] | IC50 of latent TGFβ activation (PAI-1 luciferase, TMLC and CHOK1-integrin co-culture) [4] [nM] | IC50 of inhibition of adhesion of CHOK1-mαvβ3 cells to vitronectin matrix [5] [nM] | IC50 of latent TGFβ activation (PAI-1 luciferase, TMLC and CHOK1-integrin co-culture) [6] [nM] | IC50 of latent TGFβ activation (PAI-1 luciferase, TMLC and CHOK1-integrin co-culture) [7] [nM] | IC50 of inhibition of adhesion of CHOK1-mαvβ5 cells to vitronectin matrix [8] [nM] | IC50 of latent TGFβ activation (PAI-1 luciferase, TMLC and CHOK1-integrin co-culture) [9] [nM] | IC50 of inhibition of adhesion of CHOK1-α5KO-mαvβ1 cells to fibronectin matrix [10] [nM] | IC50 of latent TGFβ activation (PAI-1 luciferase, TMLC and CHOK1-integrin co-culture) [10] [nM] | IC50 [11] [nM] | IC50 [12] [nM] | IC50 [13] [nM] | IC50 [14] [nM] | IC50 [15] [nM] | Kd [16] [nM] | IC50 [17] [nM] | Kd [18] [nM]
B1 | 31.7 | 0.94 | 3.9 | 3.1 | 1 | 13.5 | 19.1 | 5.6 | 6.1 | 1.5 | 7.5 | 30.9 | 47.8 | 3.2 | 2.26 | 47.3 | 2 to 48 |  | 
B2 | 14.8 | 1.16 |  |  |  |  |  |  |  |  |  | 96 | 200 | 3.4 | 2.57 | 9.46 |  | 17.7 | 
B3 | 53.5 | 1.24 |  |  |  |  |  |  |  |  |  | 25.4 | 19.7 | 4.2 | 3.15 | 43.1 |  |  | 
B4 | 26 | 1.03 |  |  |  |  |  |  |  |  |  | 16.4 | 48 | 4.3 | 2.41 | 34.1 |  |  | 
B5 | 22.3 | 1.28 |  |  |  |  |  |  |  |  |  | 7.49 | 12.2 | 9.2 | 1.27 | 31.1 |  | 96.3 | 2 to 48
